{"source": "paper PMC9173649", "about": "(2022)", "key": {"[1]": {"target": "T1, C1q purified from human serum (human, UniProt P02745 23-245; P02746 28-253; P02747 29-245)", "T1 sequence (P02745 23-245, chain 1 of 3)": "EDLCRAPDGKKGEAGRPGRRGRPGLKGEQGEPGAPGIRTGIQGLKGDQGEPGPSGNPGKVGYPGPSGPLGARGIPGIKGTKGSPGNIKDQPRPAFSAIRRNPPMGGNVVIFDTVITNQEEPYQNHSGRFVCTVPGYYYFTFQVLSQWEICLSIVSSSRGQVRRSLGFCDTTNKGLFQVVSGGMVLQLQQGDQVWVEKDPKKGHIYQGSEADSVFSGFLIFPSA", "T1 sequence (P02746 28-253, chain 2 of 3)": "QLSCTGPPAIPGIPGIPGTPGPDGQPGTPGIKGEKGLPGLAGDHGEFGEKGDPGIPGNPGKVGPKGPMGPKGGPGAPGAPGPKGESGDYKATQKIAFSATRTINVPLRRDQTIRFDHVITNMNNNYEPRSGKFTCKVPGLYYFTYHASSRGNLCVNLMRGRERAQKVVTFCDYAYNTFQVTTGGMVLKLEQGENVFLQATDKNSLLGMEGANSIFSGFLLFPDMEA", "T1 sequence (P02747 29-245, chain 3 of 3)": "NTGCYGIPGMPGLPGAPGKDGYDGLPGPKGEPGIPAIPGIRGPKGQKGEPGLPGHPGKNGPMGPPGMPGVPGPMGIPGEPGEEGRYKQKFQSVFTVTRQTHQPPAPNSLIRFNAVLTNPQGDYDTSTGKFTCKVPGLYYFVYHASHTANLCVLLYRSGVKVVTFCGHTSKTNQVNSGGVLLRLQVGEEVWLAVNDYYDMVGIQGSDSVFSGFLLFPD", "test": "BLI; 2:1 heterogeneous ligand model, kd1 (first site)"}, "[2]": {"target": "T1, C1q purified from human serum", "test": "BLI; 2:1 heterogeneous ligand model, kd2 (second site)"}, "[3]": {"target": "T1, C1q purified from human serum", "test": "BLI; 2:1 heterogeneous ligand model, KD1 (first site)"}, "[4]": {"target": "T1, C1q purified from human serum", "test": "BLI; 2:1 heterogeneous ligand model, KD2 (second site)"}}}
{"binder": "C1r2C1s2 catalytic tetramer (complex) chain 1: SIPIPQKLFGEVTSPLFPKPYPNNFETTTVITVPTGYRVKLVFQQFDLEPSEGCFYDYVKISADKKSLGRFCGQLGSPLGNPPGKKEFMSQGNKMLLTFHTDFSNEENGTIMFYKGFLAYYQAVDLDECASRSKSGEEDPQPQCQHLCHNYVGGYFCSCRPGYELQEDTHSCQAECSSELYTEASGYISSLEYPRSYPPDLRCNYSIRVERGLTLHLKFLEPFDIDDHQQVHCPYDQLQIYANGKNIGEFCGKQRPPDLDTSSNAVDLLFFTDESGDSRGWKLRYTTEIIKCPQPKTLDEFTIIQNLQPQYQFRDYFIATCKQGYQLIEGNQVLHSFTAVCQDDGTWHRAMPRCKIKDCGQPRNLPNGDFRYTTTMGVNTYKARIQYYCHEPYYKMQTRAGSRESEQGVYTCTAQGIWKNEQKGEKIPRCLPVCGKPVNPVEQRQRIIGGQKAKMGNFPWQVFTNIHGRGGGALLGDRWILTAAHTLYPKEHEAQSNASLDVFLGHTNVEELMKLGNHPIRRVSVHPDYRQDESYNFEGDIALLELENSVTLGPNLLPICLPDNDTFYDLGLMGYVSGFGVMEEKIAHDLRFVRLPVANPQACENWLRGKNRMDVFSQNMFCAGHPSLKQDACQGDSGGVFAVRDPNTDRWVATGIVSWGIGCSRGYGFYTKVLNYVDWIKKEMEEED chain 2: EPTMYGEILSPNYPQAYPSEVEKSWDIEVPEGYGIHLYFTHLDIELSENCAYDSVQIISGDTEEGRLCGQRSSNNPHSPIVEEFQVPYNKLQVIFKSDFSNEERFTGFAAYYVATDINECTDFVDVPCSHFCNNFIGGYFCSCPPEYFLHDDMKNCGVNCSGDVFTALIGEIASPNYPKPYPENSRCEYQIRLEKGFQVVVTLRREDFDVEAADSAGNCLDSLVFVAGDRQFGPYCGHGFPGPLNIETKSNALDIIFQTDLTGQKKGWKLRYHGDPMPCPKEDTPNSVWEPAKAKYVFRDVVQITCLDGFEVVEGRVGATSFYSTCQSNGKWSNSKLKCQPVDCGIPESIENGKVEDPESTLFGSVIRYTCEEPYYYMENGGGGEYHCAGNGSWVNEVLGPELPKCVPVCGVPREPFEEKQRIIGGSDADIKNFPWQVFFDNPWAGGALINEYWVLTAAHVVEGNREPTMYVGSTSVQTSRLAKSKMLTPEHVFIHPGWKLLEVPEGRTNFDNDIALVRLKDPVKMGPTVSPICLPGTSSDYNLMDGDLGLISGWGRTEKRDRAVRLKAARLPVAPLRKCKEVKVEKPTADAEAYVFTPNMICAGGEKGMDSCKGDSGGAFAVQDPNDKTKFYAAGLVSWGPQCGTYGLYTRVKNYVDWIMKTMQENSTPRED", "values": [{"measurement": "koff", "setting": "[1]", "value": 0.000402, "unit": "s⁻¹"}, {"measurement": "koff", "setting": "[2]", "value": 0.00928, "unit": "s⁻¹"}, {"measurement": "Kd", "setting": "[3]", "value": 10, "unit": "nM"}, {"measurement": "Kd", "setting": "[4]", "value": 4.33, "unit": "nM"}]}
